Test results taken from the supplement of paper PMC9732359.
± gives the uncertainty stated by the source.

Assay: protein stability index of a GFP-peptide fusion (yeast GPS) (PSI 1-4); higher = more stable; sorted into four equal gates, so the index is relative within each strain
How it was run: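 Each library plasmid carries Cherry plus GFP with a tiled 17-residue yeast protein peptide fused downstream, and the pooled library was carried in yeast. Mid-log cultures in leucine-free medium were sorted into four equal gates by GFP/Cherry ratio. Reads from Illumina sequencing of PCR-amplified plasmids from each gate were assigned to strains by barcodes. Per peptide, the protein stability index was computed as the summed products of gate read frequency and gate number.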

Sequence | protein stability index (doa10∆) | protein stability index (pdr5∆) | protein stability index (san1∆) | protein stability index (ubr1∆)
ESKMRQQEAKYRNNEPA [YDL088C/ASM4] | 3.13 ± 0.074 | 3.12 ± 0.063 | 2.84 ± 0.075 | 2.88 ± 0.059
QWMVSLFNNHLNGILAD [SNF2] | 1.39 ± 0.12 | 1.46 ± 0.11 | 1.37 ± 0.14 | 1.2 ± 0.059
VRNSFPLDEIPVDVDFN [REC8] | 2.71 ± 0.12 | 2.33 ± 0.096 | 2.57 ± 0.078 | 2.99 ± 0.065
LLTNSNNGSSNNNTQNT [SNF5] | 2.99 ± 0.082 | 3.25 ± 0.084 | 3.17 ± 0.069 | 3.18 ± 0.055
QTFNFDSFENYFNQLKP [RPN12] | 2.76 ± 0.047 | 2.9 ± 0.064 | 3.05 ± 0.052 | 3 ± 0.046
MAKVEVNLAAIPLGKNV [RIP1] | 3.33 ± 0.3 |  |  | 
LIAEESEDDSESGKVFI [RPB2] | 3.03 ± 0.23 | 3.63 ± 0.29 | 3.48 ± 0.29 | 
RFSYSPPKEGNYEIVFD [YMR129W/POM152] | 3.05 ± 0.29 | 3.24 ± 0.18 | 3.13 ± 0.071 | 3.45 ± 0.16
HARTAAVTHNLYYDEDI [PUP2] | 3.21 ± 0.16 | 3.22 ± 0.17 | 2.86 ± 0.23 | 2.63 ± 0.1
IELNFDAVKDFKLGKFN [QCR2] | 3.31 ± 0.26 | 2.69 ± 0.17 | 3.31 ± 0.093 | 3.71 ± 0.25
AIGYPTLPSVGHTLINN [RPP0] | 3.06 ± 0.21 | 2.65 ± 0.13 |  | 
DLAERASELDESKDSIQ [SMC3] | 3.06 ± 0.093 | 3.1 ± 0.09 | 2.83 ± 0.17 | 3.17 ± 0.06
SRNFSTRDEETTKLAFL [SIR4] | 3.04 ± 0.065 | 3.09 ± 0.055 | 3.03 ± 0.04 | 2.97 ± 0.038
YVAPTKKEYIELDILNK [SRB4] | 2.76 ± 0.17 | 3.25 ± 0.22 | 2.74 ± 0.13 | 2.75 ± 0.2
TKLTTCKRELAFVKQKN [YIL149C/MLP2] | 1.84 ± 0.078 | 1.81 ± 0.086 | 1.54 ± 0.11 | 1.48 ± 0.071
PPGTGKTLCARAVANRT [RPT1] | 1.26 ± 0.1 | 1.25 ± 0.19 | 1.37 ± 0.18 | 1.27 ± 0.12
AGADRLQQGMRGAWGKP [RPL10] | 3.41 ± 0.12 | 3.25 ± 0.13 | 2.95 ± 0.12 | 3.31 ± 0.086
EPNSAKKIRFLQLIIFL [RGR1] | 1.66 ± 0.11 | 2.42 ± 0.1 | 2.89 ± 0.3 | 
PGDGSSYINVTFRAVVF [RPC25] | 1.5 ± 0.083 | 2.05 ± 0.058 | 2.4 ± 0.077 | 2.08 ± 0.054
DLKLPPMDAYLKLNHII [SNU114] | 3.09 ± 0.28 | 2.94 ± 0.18 | 2.52 ± 0.099 | 2.68 ± 0.12
STYRLEDVLSSFYRVEK [SSN2] | 2.09 ± 0.074 | 2.34 ± 0.073 | 1.87 ± 0.1 | 2.48 ± 0.094
VPTLEAKRDYIISRLNA [FAS1] | 3.13 ± 0.087 | 3.35 ± 0.16 | 3.05 ± 0.076 | 3.25 ± 0.071
RRYKLLTATPNSINKTT [POP1] | 2 ± 0.046 | 2.38 ± 0.049 | 2.4 ± 0.065 | 2.52 ± 0.042
DDDKKPDDDKIVPLTEG [RPT1] | 3 ± 0.13 | 3.29 ± 0.11 | 3.16 ± 0.12 | 3.32 ± 0.064
GMPHKFYQGKTGVVYNV [RPL21A] | 2.84 ± 0.088 | 2.86 ± 0.077 | 2.53 ± 0.078 | 2.61 ± 0.067
EGMFANANRVFRTRFQD [SMC2] | 2.26 ± 0.097 | 1.76 ± 0.089 | 2.68 ± 0.25 | 2.31 ± 0.078
NNNGNSAASKKKKNKNK [SRP21] | 3.09 ± 0.092 | 3 ± 0.12 | 3.15 ± 0.057 | 3.14 ± 0.057

Sequence | protein stability index (doa10∆) | protein stability index (pdr5∆) | protein stability index (san1∆) | protein stability index (ubr1∆)
GINSKSGKPFIAGFDLI [PUP3] | 3.11 ± 0.089 | 3.29 ± 0.094 | 3.3 ± 0.13 | 3.06 ± 0.081
LDTFIKIDGNPDELIKA [PRE5] | 3.19 ± 0.12 | 3.19 ± 0.12 | 3.31 ± 0.071 | 3.36 ± 0.079
ILINTARIHAQNYLKTY [PRE9] | 2.01 ± 0.085 | 1.78 ± 0.073 | 2.55 ± 0.17 | 1.89 ± 0.06
KGEVYTIPLGGSVHKLP [PRE3] | 2.97 ± 0.065 | 2.95 ± 0.082 | 2.84 ± 0.088 | 3.04 ± 0.044
GQRDLDRIAAQTLEEDE [RPS19A] | 3.21 ± 0.087 | 3.21 ± 0.091 | 3.29 ± 0.1 | 3.23 ± 0.097
VGASVVVVKNWGAETDE [RPS12] | 3.34 ± 0.12 | 3.12 ± 0.089 | 3.29 ± 0.047 | 2.97 ± 0.067
HKSIELISNLLFSKNRN [YCS4] | 2.25 ± 0.055 | 2.47 ± 0.047 | 2.52 ± 0.046 | 2.41 ± 0.05
SLISVLEASLNSITKDN [YJL039C/NUP192] | 2.46 ± 0.052 | 2.24 ± 0.038 | 2.31 ± 0.048 | 2.09 ± 0.026
RILSTLDRELLKPSMSV [RPT3] | 3.04 ± 0.081 | 2.73 ± 0.11 | 3.07 ± 0.073 | 2.57 ± 0.15
KTLVALEKQEDYIDNLV [RPC37] | 3.23 ± 0.11 | 2.97 ± 0.14 | 2.97 ± 0.16 | 3.07 ± 0.11
EVNKSELYLTAELSEIW [SIR3] |  | 2.86 ± 0.29 |  | 3.24 ± 0.21
GPVAAQFTKVIDEPIKS [FAS1] | 1.8 ± 0.2 | 2.41 ± 0.092 | 2.15 ± 0.14 | 2 ± 0.052
IPGMSNMMNQVGEEETS [SRP54] |  |  | 2.14 ± 0.29 | 
NHSNNDIPTIADEHFWA [BRN1] | 3.38 ± 0.099 | 3.11 ± 0.077 | 3.2 ± 0.059 | 3.24 ± 0.036
IWLKDFIAVGQILPESQ [SIR3] |  | 2.37 ± 0.28 |  | 
SLPSKLTKYKEMERIVK [SRP68] | 2.59 ± 0.055 | 2.55 ± 0.064 | 2.42 ± 0.046 | 2.86 ± 0.044
IGVIQLAHYVVTAKLLG [FAS1] | 1.51 ± 0.066 | 1.23 ± 0.04 | 1.24 ± 0.09 | 1.35 ± 0.053
SSLSAIIVFGYPESISN [YDL088C/ASM4] | 1.75 ± 0.067 | 1.88 ± 0.046 | 2.16 ± 0.086 | 2.01 ± 0.062
SVSSPIELNFDAVKDFK [QCR2] | 1.89 ± 0.069 | 1.67 ± 0.065 | 2.5 ± 0.09 | 1.57 ± 0.053
NAIQTEVYGINEESTNE [SIR4] |  | 3.03 ± 0.3 | 2.9 ± 0.25 | 
SERDSKDRYINGDKKVD [YMR129W/POM152] | 3.08 ± 0.14 | 3.11 ± 0.092 | 3.15 ± 0.091 | 3.1 ± 0.1
RGGGHHSFEDAHTPMLQ [FAS1] | 3.3 ± 0.26 | 3.48 ± 0.21 |  | 
RGEIREIEQVCKQVHDK [MED7] | 3.06 ± 0.077 | 3.27 ± 0.046 | 2.8 ± 0.062 | 2.87 ± 0.073
YVSDSDDSSSDNDSLTD [SIR4] | 2.51 ± 0.051 | 2.94 ± 0.038 | 2.67 ± 0.056 | 2.63 ± 0.047
IGDDGYDLLISTLTTIS [SRB5] | 2.18 ± 0.054 | 2.1 ± 0.058 | 1.52 ± 0.085 | 2.2 ± 0.061
SYWQKSYFKNSVIVKFH [LIN1] | 2.56 ± 0.041 | 2.62 ± 0.045 | 2.42 ± 0.06 | 2.35 ± 0.041
DLVHIKDSLDNTFVTRL [RPS4A] | 2.79 ± 0.12 | 2.83 ± 0.091 | 3 ± 0.094 | 3.04 ± 0.058
